Bridge positions count the residues as written; N and C are the ends. Ends that are not written are not given here.
Biological target: T1, RNF31 PUB domain (Homo sapiens, UniProt Q96EP0)
T1 construct: MBP-TEV (N, cleaved yes); made in house; host or cells: E. coli BL21 (DE3) pLysS
T1 sequence (Q96EP0 1-179): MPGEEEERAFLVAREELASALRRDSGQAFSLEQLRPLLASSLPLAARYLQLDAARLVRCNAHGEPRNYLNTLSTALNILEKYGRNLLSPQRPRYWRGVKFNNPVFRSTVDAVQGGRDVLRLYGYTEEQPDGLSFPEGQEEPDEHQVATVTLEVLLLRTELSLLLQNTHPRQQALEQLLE
Test: Phage Library Screening with NGS, RNF31 PUB domain
Format: binding
Conditions: for Phage library screen NGS readout, Target Concentration 10 / Phage library screen NGS readout, Target Concentration 30 / Phage library screen NGS readout, Target Concentration 100 / Phage library screen NGS readout, Target Concentration 300 / Phage library screen NGS readout, Target Concentration 1000: RNF31 PUB domain clusters C41-C45; for Phage library screen NGS readout, BLANK: clusters C41-C45

[1] = target concentration 1000, first column
[2] = target concentration 1000, second column

Phage library screen NGS readout, Target Concentration 10 | Phage library screen NGS readout, Target Concentration 30 | Phage library screen NGS readout, Target Concentration 100 | Phage library screen NGS readout, Target Concentration 300 | Phage library screen NGS readout, Target Concentration 1000 [1] | Phage library screen NGS readout, Target Concentration 1000 [2] | Phage library screen NGS readout, BLANK (column 1 of 5) | Phage library screen NGS readout, BLANK (column 2 of 5) | Phage library screen NGS readout, BLANK (column 3 of 5) | Phage library screen NGS readout, BLANK (column 4 of 5) | Phage library screen NGS readout, BLANK (column 5 of 5) | Sequence
0 | 0 | 1 | 2 | 12 | 12 | 0 | 3 | 0 | 0 | 1 | DPAYRDCDWAALYCDDF
1 | 1 | 1 | 11 | 96 | 69 | 0 | 0 | 2 | 0 | 0 | DPALSHCTVAAMVCSTY
0 | 0 | 0 | 2 | 12 | 5 | 0 | 0 | 0 | 0 | 0 | DPAWEWCLYAAAECIED
0 | 1 | 0 | 2 | 14 | 5 | 0 | 0 | 0 | 0 | 0 | DPAWESCMYAAYDCDNE
2 | 2 | 0 | 3 | 15 | 7 | 0 | 0 | 0 | 0 | 0 | DPAEWDCLYAAFDCFAN
0 | 0 | 0 | 3 | 12 | 2 | 2 | 0 | 0 | 0 | 0 | DPAWWDCMYAASHCDTV
0 | 0 | 0 | 2 | 7 | 9 | 0 | 0 | 2 | 1 | 1 | DPAQDWCMYAAYECDAH
0 | 0 | 0 | 3 | 5 | 12 | 0 | 3 | 0 | 0 | 0 | DPALDYCLYAAYDCMYA
1 | 1 | 1 | 3 | 11 | 1 | 2 | 1 | 1 | 0 | 0 | DPAWNDCLYAAETCISW
0 | 0 | 0 | 2 | 8 | 4 | 0 | 3 | 0 | 0 | 2 | DPAYWHCLYAAASCDDI
0 | 0 | 0 | 4 | 26 | 17 | 0 | 0 | 0 | 0 | 0 | DPAADQCDIAAFVCSTY
0 | 0 | 0 | 7 | 22 | 20 | 0 | 0 | 0 | 0 | 0 | DPAIVQCAWAALYCDMQ (Ac-DPAIVQCAWAALYCDMQ-NH2; bridge 7-14; also: Cys-Cys staple, linker not named)
0 | 1 | 0 | 4 | 8 | 12 | 0 | 2 | 1 | 0 | 0 | DPALWDCLYAADACITS (not fully specified; cysteine pairing not given here)
1 | 1 | 5 | 2 | 7 | 4 | 1 | 1 | 4 | 2 | 1 | DPAYSSCSWAAIYCNWT
2 | 0 | 0 | 2 | 18 | 9 | 1 | 3 | 1 | 0 | 0 | DPAEQFCLYAAYDCYSE
1 | 1 | 2 | 1 | 4 | 10 | 0 | 1 | 0 | 2 | 0 | DPALVTCTWAAIYCDDF
0 | 0 | 1 | 2 | 6 | 4 | 1 | 0 | 0 | 0 | 2 | DPAFWECMYAASDCDAS
